Marks after values point to notes of the source that are not given here.
Experiments:
[1] = Activity of crude culture supernatants from bioreactor; assay type: biochemical; settings: pNP-dodecanoate
[2] = Specific activity of purified enzymes (standard esterase assay); assay type: biochemical
Experimental: In summary, using different techniques for enzyme purification, pure enzyme preparations were obtained and tested for their activity towards a standard esterase substrate, pNP-palmitate. Enzymatic activities of the purified variants are summarized below:
(§1) Esterase activity was determined by monitoring the formation of para-nitrophenol (pNP) at 410 nm from various pNP-esters using a Beckman UV spectrophotometer (model DU 640). Substrates were completely dissolved in 2-propanol (8 mM) and were then added to 50 mM Tris/HCl buffer pH 8.0 to give a final substrate concentration of 0.8 mM. The reaction (1 mL) was started by adding an appropriate amount of enzyme. One enzyme unit (U) was defined as the amount of enzyme that produced 1 μmol of product (pNP) per min; specific activity was expressed as U/mg protein. A molar extinction coefficient of 15 mM^−1 cm^−1 was used for the calculation.

[3] = Circular dichroism spectroscopy, melting temperature and refolding; assay type: physicochemical
Experimental: CD spectra were recorded using a Jasco™ J-815 spectrometer operating with the Spectra™ Manager software. Temperature was controlled using a Jasco™ PFD-452S peltier unit. Previously purified protein solutions were adjusted to 0.15 mg/mL (if quantities allowed for) and CD spectra were recorded between 190 and 250 nm using a Quartz cuvette (ID=0.1 cm). Blanks containing buffer only were prepared and used as baseline. Temperature dependent protein unfolding was monitored at 222 nm with thermo profiles ranging from 20 up to 90° C. (2° C. min-1). Samples were kept for 5 min at the respective maximum temperature and protein refolding was monitored using the same conditions as above reversing the thermo profiles. Thermodynamic parameters (Tm, ΔH, ΔS, ΔG) for the folding/unfolding process, if applicable, were calculated using the Spectra™ Manager software.

[4] = Enzyme substrate profiles, esterase assays; assay type: biochemical; settings: highest activity towards a specific substrate set to 100%
Experimental: as §1

Temperature optimum = assay type: biochemical; settings: for Relative activity at temperature: highest activity set to 100%
Experimental: For estimation of the temperature optimum, buffer containing pNP-palmitate (see esterase assay in Example 20.1) was pre-incubated to reach the desired temperature, enzyme was then added, and the formation of pNP was assayed. For this experiment, Tris/HCl buffer was replaced with sodium phosphate buffer (50 mM, pH 8.0) to avoid a pH shift at the different temperatures.

[5] = Enzymatic activity in the presence of organic solvents; assay type: biochemical; settings: buffer only = 100%
Experimental: Enzyme activity in various organic solvents was studied over a concentration range of 1-30% at room temperature. pNP-palmitate was completely dissolved in 2-propanol (8 mM) and then added to 50 mM Tris/HCl buffer pH 8.0 containing up to 30% organic solvent to give a final substrate concentration of 0.8 mM. The reaction was started by addition of enzyme and the formation of pNP was assayed as described above in Example 20.1.

pH dependence of enzymes = assay type: biochemical; settings: for Relative activity (%): highest activity = 100%
Experimental: The influence of different pH values (from 5.5 to 11) on the activities of the purified enzymes was examined in three buffer systems (sodium acetate, sodium phosphate, and Tris-HCl) at room temperature using pNP-palmitate (see esterase assay in Example 20.1) as a substrate at a final substrate concentration of 0.8 mM.

[6] = Stability in the presence of hydrogen peroxide; assay type: physicochemical
Experimental: as §1
Purified cutinases were incubated at room temperature in the presence of 0, 30, 100, 300, 1500, and 3000 ppm of hydrogen peroxide. Residual enzyme activity was assayed (see Example 20.1) after 1, 2, 3, and 7 days of incubation.

B1: KrCUT: mature Kineococcus radiotolerans cutinase, amino acids 34-294 of SEQ ID NO: 1; SEQ ID NO: 6 (protein)
chain: ATCSDVDVVFARGTGETPGLGVVGGPFVRSLTGELSDRTVTSHAVDYAASSSQASAGPGATAMSAHVREVAAACPSTRFVLGGYSQGATVTDIALGIRTGTTTGTPVPAELAGRVAAVVVFGNPLGLSGRTIATASSTYGPKSKDYCNSSDSVCGSAPKTGTGGHLSYASNGSTTDGARFAAGLVRAAGTPTTPTPTPTPTPVPTTCVRDSTRDHVAADRAVSLYGRAYARGSRDSLGATSSYNVVSLQQVEGGWRLVTAC
modifications: Kineococcus radiotolerans; (1)..(261) KrCUT (lacking residues 1-33 of ssKrCUT)
- activity of crude culture supernatant [1]: 1.6 U/mL
- Enzymatic activity of the purified variant ([2]; pNP-palmitate): 197 ± 3 U/mg
- Spec. Act. (U/mg) ([2]; towards pNP-palmitate (standard assay)): 197 ± 3 U/mg
- refolding ([3]; CD at 222 nm): refolding to some extent
- midpoint transition temperature of refolding ([3]; CD at 222 nm, high to low temperature): 42.7 °C
- melting temperature (Tm) ([3]; CD at 222 nm, unfolding): 50.7 °C
- Tm (° C.) ([3]; estimated using CD-spectroscopy): 51 ± 1 °C
- Relative activity, pNP-acetate (C2) [4]: 2%
- Relative activity, pNP-butyrate (C4) [4]: 26 ± 2%
- Relative activity, pNP-caprylate (C8) [4]: 25 ± 3%
- Relative activity, pNP-decanoate (C10) [4]: 25 ± 3%
- Relative activity, pNP-myristate (C14) [4]: 100* %
- Relative activity, pNP-palmitate (C16) [4]: 98 ± 6%
- Temp. opt. (° C.) (Temperature optimum): 45 °C
- Relative activity at temperature (Temperature optimum; 20 ° C.): 83 ± 5%
- Relative activity at temperature (Temperature optimum; 25 ° C.): 84 ± 4%
- Relative activity at temperature (Temperature optimum; 30 ° C.): 83 ± 4%
- Relative activity at temperature (Temperature optimum; 35 ° C.): 84 ± 4%
- Relative activity at temperature (Temperature optimum; 40 ° C.): 89 ± 6%
- Relative activity at temperature (Temperature optimum; 45 ° C.): 100* %
- Relative activity at temperature (Temperature optimum; 50 ° C.): 90 ± 4%
- Relative activity at temperature (Temperature optimum; 55 ° C.): 38 ± 3%
- Relative activity at temperature (Temperature optimum; 60 ° C.): 15 ± 5%
- Relative enzymatic activity (%) ([5]; 2-Propanol 5% (v/v)): 55 ± 11%
- Relative enzymatic activity (%) ([5]; 2-Propanol 10% (v/v)): 8%
- Relative enzymatic activity (%) ([5]; Acetone 1% (v/v)): 71 ± 2%
- Relative enzymatic activity (%) ([5]; Acetone 5% (v/v)): 47 ± 7%
- Relative enzymatic activity (%) ([5]; Dimethyl sulfoxide (DMSO) 10% (v/v)): 106 ± 4%
- Relative enzymatic activity (%) ([5]; Dimethyl sulfoxide (DMSO) 20% (v/v)): 14 ± 2%
- Relative enzymatic activity (%) ([5]; Dimethyl sulfoxide (DMSO) 30% (v/v)): 2%
- Relative enzymatic activity (%) ([5]; Dimethylformamide (DMF) 5% (v/v)): 55 ± 11%
- Relative enzymatic activity (%) ([5]; Methanol 10% (v/v)): 91 ± 12%
- Relative enzymatic activity (%) ([5]; Methanol 20% (v/v)): 8%
- pH opt. (pH dependence of enzymes): 8.5
- Relative activity (%) (pH dependence of enzymes; pH 6.5, sodium phosphate buffer): 22 ± 1%
- Relative activity (%) (pH dependence of enzymes; pH 7.0, sodium phosphate buffer): 53 ± 2%
- Relative activity (%) (pH dependence of enzymes; pH 7.5, sodium phosphate buffer): 72 ± 4%
- Relative activity (%) (pH dependence of enzymes; pH 8.0, Tris/HCl): 87 ± 6%
- Relative activity (%) (pH dependence of enzymes; pH 8.5, Tris/HCl): 100* %
- Relative activity (%) (pH dependence of enzymes; pH 9.0, Tris/HCl): 96 ± 4%
- Relative activity (%) (pH dependence of enzymes; pH 9.5, Tris/HCl): 76 ± 7%
- Relative activity (%) (pH dependence of enzymes; pH 10, Tris/HCl): 37 ± 5%
- Relative activity (%) after exposure to hydrogen peroxide ([6]; H2O2 30 ppm, Day 0): 100 ± 9%
- Relative activity (%) after exposure to hydrogen peroxide ([6]; H2O2 30 ppm, Day 1): 90 ± 6%
- Relative activity (%) after exposure to hydrogen peroxide ([6]; H2O2 30 ppm, Day 2): 75 ± 3%
- Relative activity (%) after exposure to hydrogen peroxide ([6]; H2O2 30 ppm, Day 3): 75 ± 8%
- Relative activity (%) after exposure to hydrogen peroxide ([6]; H2O2 30 ppm, Day 7): 76 ± 2%
- Relative activity (%) after exposure to hydrogen peroxide ([6]; H2O2 100 ppm, Day 0): 104 ± 6%
- Relative activity (%) after exposure to hydrogen peroxide ([6]; H2O2 100 ppm, Day 1): 91 ± 6%
- Relative activity (%) after exposure to hydrogen peroxide ([6]; H2O2 100 ppm, Day 2): 88 ± 6%
- Relative activity (%) after exposure to hydrogen peroxide ([6]; H2O2 100 ppm, Day 3): 76 ± 2%
- Relative activity (%) after exposure to hydrogen peroxide ([6]; H2O2 100 ppm, Day 7): 66 ± 2%
- Relative activity (%) after exposure to hydrogen peroxide ([6]; H2O2 300 ppm, Day 0): 102 ± 4%
- Relative activity (%) after exposure to hydrogen peroxide ([6]; H2O2 300 ppm, Day 1): 87 ± 2%
- Relative activity (%) after exposure to hydrogen peroxide ([6]; H2O2 300 ppm, Day 2): 74 ± 1%
- Relative activity (%) after exposure to hydrogen peroxide ([6]; H2O2 300 ppm, Day 3): 63 ± 2%
- Relative activity (%) after exposure to hydrogen peroxide ([6]; H2O2 300 ppm, Day 7): 49 ± 4%
- Relative activity (%) after exposure to hydrogen peroxide ([6]; H2O2 1,500 ppm, Day 0): 102 ± 10%
- Relative activity (%) after exposure to hydrogen peroxide ([6]; H2O2 1,500 ppm, Day 1): 80 ± 4%
- Relative activity (%) after exposure to hydrogen peroxide ([6]; H2O2 1,500 ppm, Day 2): 67 ± 4%
- Relative activity (%) after exposure to hydrogen peroxide ([6]; H2O2 1,500 ppm, Day 3): 44 ± 2%
- Relative activity (%) after exposure to hydrogen peroxide ([6]; H2O2 1,500 ppm, Day 7): 11 ± 1%
- Relative activity (%) after exposure to hydrogen peroxide ([6]; H2O2 3,000 ppm, Day 0): 98 ± 9%
- Relative activity (%) after exposure to hydrogen peroxide ([6]; H2O2 3,000 ppm, Day 1): 60 ± 2%
- Relative activity (%) after exposure to hydrogen peroxide ([6]; H2O2 3,000 ppm, Day 2): 33 ± 1%
- Relative activity (%) after exposure to hydrogen peroxide ([6]; H2O2 3,000 ppm, Day 3): 20 ± 4%
- Relative activity (%) after exposure to hydrogen peroxide ([6]; H2O2 3,000 ppm, Day 7): no activity was detected

Reference: US10227575B2, “Multi-domain enzymes having cutinase activity, compositions comprising same and uses thereof” (OZYMES, priority 2015, dated 2019)
